Patent US20130018172A1, “Metal Abstraction Peptide and Uses Thereof” (Echogen, Inc., priority 2011, published 2013)
Numbering of substitutions follows the chain as printed. Numbers in names are those of the source.

Assays:
[1] = ICP-MS of metal bound to purified PRL-1 (Zn); assay type: binding
Description: (§1) ICP-MS was used to characterize the bound metal. Purified protein samples were digested in concentrated nitric acid in PFA microcentrifuge tubes (Savillex, #s 7240, 7241) at 68±1° C. for 16.5±0.7 hours. Based on protein quantification prior to digestion, the sample was then diluted to 1.5 μM in 20 mM ammonium bicarbonate, pH 8.2, filtered through a 0.2 μm nylon filter, and injected into a VG Elemental VGII+XS Inductively-Coupled Plasma-Mass Spectrometer fitted with a microconcentric nebulizer. A minimum of two separately prepared samples were analyzed for each protein variant. Each sample was scanned twice and standards were run before, between, and after each sample scan. Drift was monitored during washes between scans of both sample and standard injections.
To confirm that the chromophore arises from protein abstraction of the metal from the charged IMAC matrix, samples were subjected to ICP-MS for semi-quantitative analysis. […] On average 500 μM Ni-purified protein samples were digested in nitric acid for 16 h at 70° C. were determined to contain approximately 180 μM Ni, yielding a Ni to protein stoichiometry of 1:2.7+/−0.7. Zn was also detected in the Ni-purified samples at approximately 60 μM. […] Because ICP-MS analysis is conducted in a flow of Ar and the most abundant isotope of Ar has the same mass as Ca, Ca binding cannot be determined from the primary mass signal. […]

[2] = Metal displacement from Ni-purified PRL-1 (EDTA exchange, guanidinium hydrochloride and heat); assay type: physicochemical
Description: UV-Vis absorption spectra were used to measure the concentration of the PRL-1 protein. The concentrations of purified PRL-1 analogs were measured at 280 nm and calculated using an extinction coefficient of 19420 M^−1 cm^−1. Because of possible metal-protein absorption interferences in the high 200 nm region, the validity of the UV-Vis quantification method was confirmed by the Bradford method. Spectra of PRL-1 analogs at concentrations of 10, 5, 2.5, and 1.25 mg/mL were collected on a Cary 100 UV-Vis spectrophotometer from 800 to 200 nm. […] The resulting spectra were resolved and peak positions were evaluated using GRAMS/AI 7.00 software. Three methods were aimed at metal displacement. In the first, PRL-1-WT (e.g., wild type) samples were reduced using 20 mM β-mercaptoethanol (BME), and imidazole was added to a concentration of 10 mM. For 0.5 mM protein samples, this corresponds to 400-fold solution excess of BME to compete with the two C-terminal cysteine thiols and a 200-fold solution excess of imidazole to compete with the single C-terminal histidine imidazole side chain. New baselines were taken and the spectra recalculated. In the second method, baselines were recalculated for buffer containing 100 μM EDTA, and the spectrum for the PRL-1-WT sample that was exchanged ten million fold in 100 μM EDTA was recorded. Finally, 10 mg/mL protein samples were denatured in 5.6 M guanidinium hydrochloride and heated to 90° C., new baselines were taken, and the spectra were collected at 0, 2, 4 and 6 hrs.
Ni binding in PRL-1 was not affected by reduction of the disulfide bond at PRL-1's active site. […] Subtraction of the reduced spectrum from the oxidized confirms that there was no significant difference in metal coordination between the reduced and oxidized WT samples. To examine whether a small contribution from a His is made, additional imidazole was added to the solution to increase the signal strength of a transient association. […] Additionally, no spectral change was observed when the Ni-purified sample was reduced in the presence of imidazole. […]

[3] = ICP-MS of metal bound to purified PRL-1 variants (Ni); assay type: binding; conditions: for Ni bound, ICP-MS: PRL-1 variants purified on Ni-IMAC, analyzed in parallel
Description: Because the histidine mutant retained tight binding, mutations at C170 and/or C171 were made.
as §1
To confirm that the chromophore arises from protein abstraction of the metal from the charged IMAC matrix, samples were subjected to ICP-MS for semi-quantitative analysis. As extensive washing is used to remove background metals, the values obtained from this method inherently underestimate the amount of metal bound, but can be used to assess the relative affinity of different metals for the protein. Additionally, to identify an endogenous metal ligand that may have been bound to PRL-1 during expression in the cells, ICP-MS was used to look for the presence of a transition metal from the first two rows in the periodic table as well as other common biologically relevant metals. […] On average 500 μM Ni-purified protein samples were digested in nitric acid for 16 h at 70° C. were determined to contain approximately 180 μM Ni, yielding a Ni to protein stoichiometry of 1:2.7+/−0.7. Zn was also detected in the Ni-purified samples at approximately 60 μM. […] Because ICP-MS analysis is conducted in a flow of Ar and the most abundant isotope of Ar has the same mass as Ca, Ca binding cannot be determined from the primary mass signal. Nonetheless, because a much higher amount of Ca was present in the cell culture media compared to Zn and yet the ICP-MS signal corresponds largely to zinc, the protein is unlikely to bind calcium.

[4] = Solubility of PRL-1 on loss of metal; assay type: physicochemical; conditions: metal-free protein
[5] = UV-Vis absorption spectroscopy of Ni coordination by PRL-1 variants; assay type: binding; conditions: relative to wild-type, Ni-purified
Description: UV-Vis absorption spectra were used to measure the concentration of the PRL-1 protein. The concentrations of purified PRL-1 analogs were measured at 280 nm and calculated using an extinction coefficient of 19420 M^−1 cm^−1. Because of possible metal-protein absorption interferences in the high 200 nm region, the validity of the UV-Vis quantification method was confirmed by the Bradford method. Spectra of PRL-1 analogs at concentrations of 10, 5, 2.5, and 1.25 mg/mL were collected on a Cary 100 UV-Vis spectrophotometer from 800 to 200 nm. […] The resulting spectra were resolved and peak positions were evaluated using GRAMS/AI 7.00 software. Three methods were aimed at metal displacement. […] In the second method, baselines were recalculated for buffer containing 100 μM EDTA, and the spectrum for the PRL-1-WT sample that was exchanged ten million fold in 100 μM EDTA was recorded. […]
Accordingly, characterization of metal coordination by PRL-1 was determined with UV-Vis absorption spectroscopy. The metal coordination geometry employed by PRL-1 and its mutants was analyzed using UV-Vis absorption spectroscopy at 800-200 nm. Absorption spectra of PRL-1 produced peaks at 280 and 220 nm, which arise from aromatic and peptide bonds within the protein and correspond well with the concentration determined using the Bradford assay. […]

B1: PRL-1: recombinant human PRL-1 (phosphatase of regenerating liver) wild type, C-terminal NCC motif (protein, UniProt Q93096 1-170, looked up)
Protein tyrosine phosphatase …: MARMNRPAPVEVTYKNMRFLITHNPTNATLNKFIEELKKYGVTTIVRVCEATYDTTLVEKEGIHVLDWPFDDGAPPSNQIVDDWLSLVKIKFREEPGCCIAVHCVAGLGRAPVLVALALIEGGMKYEDAVQFIRQKRRGAFNSKQLLYLEKYRPKMRLRFKDSNGHRNNC
For B1, the “Zn detected in Ni-purified samples, ICP-MS” value ([1]; Ni-IMAC purified) was “approximately 60 μM”, the “Zn content after Zn-IMAC purification, ICP-MS” value ([1]; Zn-IMAC purified) was 270 µM and the “loss of peaks at 318, 421 and 526 nm (Ni release)” value ([2]; 5.6 M guanidinium hydrochloride at 90° C.) was “only gradually disappeared over 6 hrs”. For the same molecule, the “reversibility of Ni binding” value ([2]; pH 7.4) was “irreversible”, the “effect of EDTA exchange on the absorption spectrum” value ([2]; ten million-fold exchange into buffer containing 100 μM EDTA) was “little effect on the spectrum” and the “Ni bound, ICP-MS” value [3] was “approximately 120 μM”. For the same molecule, the “Ni level in Zn-IMAC purified protein, ICP-MS” value ([3]; Zn-IMAC purified) was “only background levels” and the “Ni content of Ni-purified protein samples, ICP-MS” value ([3]; on average 500 μM Ni-purified protein, digested in nitric acid 16 h at 70° C., semi-quantitative) was “approximately 180 μM”.

B2: PRL-1-C170S: PRL-1 mutant, cysteine 170 replaced by serine (protein, UniProt Q93096 1-170, looked up, variant C170S)
Protein tyrosine phosphatase …: B1 Protein tyrosine phosphatase … with C170S
In the case of B2, the “Ni bound, ICP-MS” value [3] is reported as “No Ni was detected”.

B3: Apo PRL-1: PRL-1 without bound metal (protein, UniProt Q93096 1-170, looked up)
Protein tyrosine phosphatase …: B1 Protein tyrosine phosphatase …
modifications: metal-free
In the case of B3, the solubility [4] is reported as “poorly soluble”.

B4: PRL-1-H166A: PRL-1 mutant, histidine 166 of the NGH motif replaced by alanine (protein, UniProt Q93096 1-170, looked up, variant H166A)
Protein tyrosine phosphatase …: B1 Protein tyrosine phosphatase … with H166A
In the case of B4, the “decrease in signal measured by absorption spectroscopy” value [5] is reported as 20% and the “Ni bound, ICP-MS” value [3] is reported as roughly 60 µM.
